Reference: the Immune Epitope Database (IEDB)

Columns and labels:
HLA-B*15:17 [1] = experiment: IEDB peptide-MHC binding, purified MHC/direct/fluorescence; filed as Kd, often an IC50 or EC50 that approximates it; ≥ and ≤ were set here for values at or beyond the usual limits of such assays
HLA-C*15:02 = experiment: as above; settings: source organism: Yellow fever virus
HLA-A*02:12 = experiment: as above
HLA-A*02:16 = experiment: as above
HLA-A*02:19 = experiment: as above
HLA-A*03:01 [2] = experiment: as above
HLA-A*29:02 = experiment: as above
HLA-A*26:01 = experiment: IEDB peptide-MHC binding, purified MHC/competitive/fluorescence; filed as Kd, often an IC50 or EC50 that approximates it; ≥ and ≤ were set here for values at or beyond the usual limits of such assays
HLA-A*69:01 [3] = experiment: as above
HLA-B*15:01 = experiment: as above
HLA-B*18:01 [4] = experiment: as above
HLA-B*27:03 = experiment: as above
HLA-B*39:01 = experiment: as above
HLA-B*46:01 [5] = experiment: as above
HLA-B*58:01 [6] = experiment: as above
HLA-A*02:01 [7] = experiment: as above
HLA-A*02:03 [8] = experiment: as above; settings: source organism: Homo sapiens
HLA-B*08:01 [9] = experiment: as above
HLA-A*01:01 = experiment: IEDB peptide-MHC binding, purified MHC/direct/fluorescence; filed as Kd, often an IC50 or EC50 that approximates it; ≥ and ≤ were set here for values at or beyond the usual limits of such assays
HLA-A*03:01 [10] = experiment: IEDB peptide-MHC binding, purified MHC/competitive/fluorescence; filed as Kd, often an IC50 or EC50 that approximates it; ≥ and ≤ were set here for values at or beyond the usual limits of such assays; settings: source organism: Vaccinia virus WR
HLA-B*07:02 = experiment: as above; settings: source organism: Vaccinia virus WR
HLA-C*12:03 = experiment: IEDB peptide-MHC binding, purified MHC/direct/fluorescence; filed as Kd, often an IC50 or EC50 that approximates it; ≥ and ≤ were set here for values at or beyond the usual limits of such assays; settings: source organism: Foot-and-mouth disease virus C1
HLA-A*24:03 [11] = experiment: IEDB peptide-MHC binding, purified MHC/competitive/fluorescence; filed as Kd, often an IC50 or EC50 that approximates it; ≥ and ≤ were set here for values at or beyond the usual limits of such assays
HLA-A*69:01 [12] = experiment: IEDB peptide-MHC binding, purified MHC/direct/fluorescence; filed as Kd, often an IC50 or EC50 that approximates it; ≥ and ≤ were set here for values at or beyond the usual limits of such assays
HLA-A*23:01 = experiment: as above
HLA-A*24:03 [13] = experiment: as above
HLA-A*02:01 [14] = experiment: IEDB peptide-MHC binding, purified MHC/competitive/fluorescence; ≥ and ≤ were set here for values at or beyond the usual limits of such assays; settings: source organism: Sudan ebolavirus
HLA-B*08:01 [15] = experiment: as above; settings: source organism: Sudan ebolavirus
HLA-A*02:01 [16] = experiment: IEDB peptide-MHC binding, purified MHC/direct/fluorescence; filed as Kd, often an IC50 or EC50 that approximates it; ≥ and ≤ were set here for values at or beyond the usual limits of such assays
HLA-B*15:17 [17] = experiment: IEDB peptide-MHC binding, purified MHC/competitive/fluorescence; filed as Kd, often an IC50 or EC50 that approximates it; ≥ and ≤ were set here for values at or beyond the usual limits of such assays
HLA-B*51:01 = experiment: as above
HLA-B*57:01 [18] = experiment: as above
HLA-A*02:03 [19] = experiment: IEDB peptide-MHC binding, purified MHC/direct/fluorescence; filed as Kd, often an IC50 or EC50 that approximates it; ≥ and ≤ were set here for values at or beyond the usual limits of such assays; settings: source organism: Araucaria virus
HLA-A*68:02 = experiment: as above; settings: source organism: Araucaria virus
HLA-A*31:01 = experiment: as above; settings: source organism: Bacillus anthracis
HLA-B*08:01 [20] = experiment: as above; settings: source organism: Bacillus cereus 03BB108
HLA-B*18:01 [21] = experiment: as above; settings: source organism: Bacillus anthracis
HLA-B*27:05 = experiment: as above; settings: source organism: Bacillus anthracis
HLA-B*40:01 = experiment: as above; settings: source organism: Bacillus anthracis
HLA-B*46:01 [22] = experiment: as above; settings: source organism: Bacillus anthracis
HLA-B*48:01 = experiment: as above; settings: source organism: Bacillus anthracis
HLA-B*57:01 [23] = experiment: as above; settings: source organism: Bacillus anthracis
HLA-B*58:01 [24] = experiment: as above; settings: source organism: Bacillus anthracis
HLA-A*11:01 = experiment: IEDB peptide-MHC binding, purified MHC/competitive/fluorescence; filed as Kd, often an IC50 or EC50 that approximates it; ≥ and ≤ were set here for values at or beyond the usual limits of such assays; settings: source organism: Bacillus anthracis str. A0389
[25] = source organism: Limestone Canyon virus
[26] = source organism: Four Corners hantavirus
[27] = source organism: Rickettsia sibirica 246
[28] = source organism: Zaire ebolavirus
[29] = source organism: Rickettsia felis URRWXCal2
[30] = source organism: Araucaria virus
[31] = source organism: Bacillus anthracis

Which results are given for KTNDRKWCF?
Kd (HLA-B*15:17 [1]; source organism: Yellow fever virus 17D): 0.0266 µM; Kd (HLA-C*15:02): 0.849 µM

For KSAFYQSYL, which Kd (HLA-A*02:12; [25]) is on record?
The Kd was ≥ 20 µM.

What about the Kd (HLA-A*02:16; [25]) of the same sequence?
The Kd was ≥ 20 µM.

What about the Kd (HLA-A*02:19; [25]) of the same sequence?
Its Kd is ≥ 20 µM.

What about the Kd (HLA-A*03:01 [2]; [25]) of the same sequence?
Its Kd is ≥ 20 µM.

And the Kd (HLA-A*29:02; [25])?
Its Kd is ≥ 20 µM.

What about the Kd (HLA-A*26:01; [26]) of the same sequence?
The Kd was ≥ 20 µM.

What about the Kd (HLA-A*69:01 [3]; [26]) of the same sequence?
The Kd was ≥ 20 µM.

What about the Kd (HLA-B*15:01; [26]) of the same sequence?
The Kd was ≥ 20 µM.

What about the Kd (HLA-B*18:01 [4]; [26]) of the same sequence?
The Kd was ≥ 20 µM.

What about the Kd (HLA-B*27:03; [26]) of the same sequence?
Its Kd is ≥ 20 µM.

And the Kd (HLA-B*39:01; [26])?
The Kd was ≥ 20 µM.

What about the Kd (HLA-B*46:01 [5]; [26]) of the same sequence?
The Kd was ≥ 20 µM.

And the Kd (HLA-B*58:01 [6]; [26])?
The Kd was 0.0021 µM.

For FLHSGTAKS, which Kd (HLA-A*02:01 [7]; source organism: Homo sapiens) is on record?
Its Kd is 0.0185 µM.

What about the Kd (HLA-A*02:03 [8]) of the same sequence?
The Kd was 0.00125 µM.

What about the Kd (HLA-A*69:01 [3]; source organism: Homo sapiens) of the same sequence?
Its Kd is ≥ 20 µM.

QLRENAEDM was tested. Which Kd (HLA-B*08:01 [9]; source organism: Influenza A virus (A/swine/Hong Kong/81/1978(H3N2))) did it give?
Its Kd is 5.3 µM.

How did the Kd (HLA-A*01:01; source organism: Cowpox virus (Brighton Red)) turn out when LSDLKKTIY was run?
Its Kd is 0.0035 µM.

What about the Kd (HLA-A*03:01 [10]) of the same sequence?
Its Kd is ≥ 20 µM.

What about the Kd (HLA-B*07:02) of the same sequence?
Its Kd is ≥ 20 µM.

And the Kd (HLA-B*08:01 [9]; source organism: Vaccinia virus WR)?
The Kd was ≥ 20 µM.

With MTAHITVPY as the sequence, how does the Kd (HLA-C*12:03) read?
The Kd was 0.045 µM.

How did the Kd (HLA-A*24:03 [11]; source organism: Influenza A virus) turn out when CYPYDVPDY was run?
The Kd was 0.223 µM.

Which Kd (HLA-B*58:01 [6]; source organism: Escherichia coli E22) does the source give for STVADEIAF here?
The Kd was 1.78 µM.

Which Kd (HLA-A*69:01 [12]; source organism: Burkholderia mallei) does the source give for IYQARFMKY here?
Its Kd is ≥ 20 µM.

And the Kd (HLA-A*24:03 [11]; source organism: Pseudomonas aeruginosa PACS2)?
The Kd was 0.0008 µM.

For MFSVYDYGF, which Kd (HLA-A*23:01; [27]) is on record?
The Kd was 0.003 µM.

And the Kd (HLA-A*24:03 [13]; [27])?
Its Kd is 0.003 µM.

Which results are given for FLYDRLAST?
IC50 (HLA-A*02:01 [14]): 0.887 µM; IC50 (HLA-B*08:01 [15]): 40.6 µM; Kd (HLA-A*02:01 [16]; [28]): 0.0022 µM; Kd (HLA-A*03:01 [2]; [28]): ≥ 20 µM; Kd (HLA-A*23:01; [28]): ≥ 20 µM; Kd (HLA-A*24:03 [13]; [28]): ≥ 20 µM; Kd (HLA-A*29:02; [28]): ≥ 20 µM; Kd (HLA-A*26:01; [28]): ≥ 20 µM; Kd (HLA-A*69:01 [3]; [28]): ≥ 20 µM; Kd (HLA-B*15:01; [28]): ≥ 20 µM; Kd (HLA-B*15:17 [17]; [28]): ≥ 20 µM; Kd (HLA-B*18:01 [4]; [28]): ≥ 20 µM; Kd (HLA-B*27:03; [28]): ≥ 20 µM; Kd (HLA-B*46:01 [5]; [28]): ≥ 20 µM; Kd (HLA-B*51:01; [28]): ≥ 20 µM; Kd (HLA-B*57:01 [18]; [28]): ≥ 20 µM

Which results are given for GYTVARSQL?
Kd (HLA-A*23:01; [29]): 0.466 µM; Kd (HLA-A*24:03 [13]; [29]): 0.022 µM

Which results are given for LYVAGVPEL?
Kd (HLA-A*02:03 [19]): ≥ 20 µM; Kd (HLA-A*02:12; [30]): ≥ 20 µM; Kd (HLA-A*02:16; [30]): ≥ 20 µM; Kd (HLA-A*02:19; [30]): ≥ 20 µM; Kd (HLA-A*03:01 [2]; [30]): ≥ 20 µM; Kd (HLA-A*29:02; [30]): ≥ 20 µM; Kd (HLA-A*68:02): ≥ 20 µM; Kd (HLA-A*02:01 [7]; [30]): ≥ 20 µM; Kd (HLA-A*24:03 [11]; [30]): 0.0003 µM; Kd (HLA-A*26:01; [30]): ≥ 20 µM; Kd (HLA-A*69:01 [3]; [30]): ≥ 20 µM; Kd (HLA-B*15:17 [17]; [30]): ≥ 20 µM; Kd (HLA-B*18:01 [4]; [30]): ≥ 20 µM; Kd (HLA-B*27:03; [30]): ≥ 20 µM; Kd (HLA-B*39:01; [30]): ≥ 20 µM; Kd (HLA-B*46:01 [5]; [30]): ≥ 20 µM; Kd (HLA-B*51:01; [30]): ≥ 20 µM; Kd (HLA-B*57:01 [18]; [30]): ≥ 20 µM

VTECKLIYY was tested. Which Kd (HLA-A*01:01; [31]) did it give?
Its Kd is 0.007 µM.

What about the Kd (HLA-A*02:01 [16]; [31]) of the same sequence?
Its Kd is ≥ 20 µM.

And the Kd (HLA-A*03:01 [2]; [31])?
The Kd was ≥ 20 µM.

What about the Kd (HLA-A*31:01) of the same sequence?
The Kd was ≥ 20 µM.

What about the Kd (HLA-A*69:01 [12]; [31]) of the same sequence?
The Kd was ≥ 20 µM.

And the Kd (HLA-B*08:01 [20])?
Its Kd is ≥ 20 µM.

What about the Kd (HLA-B*15:17 [1]; [31]) of the same sequence?
The Kd was 0.0347 µM.

And the Kd (HLA-B*18:01 [21])?
The Kd was ≥ 20 µM.

What about the Kd (HLA-B*27:05) of the same sequence?
Its Kd is ≥ 20 µM.

What about the Kd (HLA-B*40:01) of the same sequence?
The Kd was ≥ 20 µM.

And the Kd (HLA-B*46:01 [22])?
Its Kd is ≥ 20 µM.

What about the Kd (HLA-B*48:01) of the same sequence?
Its Kd is ≥ 20 µM.

What about the Kd (HLA-B*57:01 [23]) of the same sequence?
Its Kd is ≥ 20 µM.

What about the Kd (HLA-B*58:01 [24]) of the same sequence?
Its Kd is ≥ 20 µM.

What about the Kd (HLA-A*11:01) of the same sequence?
The Kd was 1.26 µM.

And the Kd (HLA-B*15:01; source organism: Bacillus anthracis str. A0389)?
Its Kd is ≥ 20 µM.
